We go through 2 molecules from patent US10906989 (dated 2021).

The target in this experiment is T1, staphylocoagulase SC(1-246), unlabeled (UniProt P17855 27-272).
T1 chain: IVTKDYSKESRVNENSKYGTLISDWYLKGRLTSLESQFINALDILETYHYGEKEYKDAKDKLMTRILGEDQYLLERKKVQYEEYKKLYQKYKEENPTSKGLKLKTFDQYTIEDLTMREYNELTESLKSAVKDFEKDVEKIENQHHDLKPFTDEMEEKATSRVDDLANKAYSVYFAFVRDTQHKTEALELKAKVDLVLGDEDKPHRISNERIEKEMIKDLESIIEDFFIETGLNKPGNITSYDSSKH
The experiment can be described thus: fluorescence competitive titration; competitor.

B1: GMA-2105 murine monoclonal antibody (antibody, V domains shown)
VH: EVKLEESGGGLVQPGGSMKLSCAASGFTFSDAWMDWVRQSPEKGLEWVAEIRTKANNHATYYAESVKGRFTISRDDSKSSVYLQMNSLRAEDTGIYYCTNVYYGNNDVKDYWGQGTSVTVSP
VL: DIVMTQSQKFMSTSVGDRVSVTCKASQNVDIYVAWYQQKPGQSPKALIYSASYRFSGVPDRFTGSGSGTDFTLSISNVQSEDLAEYFCQQYNNYPYTFGGGTKLEIKR
Turning to B1, the affinity, expressed as Kd, was 0.71 nM.

B2: Chimeric GMA-2105 (antibody, V domains shown)
VH: EVKLEESGGGLVQPGGSMKLSCAASGFTFSDAWMDWVRQSPEKGLEWVAEIRTKANNHATYYAESVKGRFTISRDDSKSSVYLQMNSLRAEDTGIYYCTNVYYGNNDVKDYWGQGTSVTVSP
VL: DIVMTQSQKFMSTSVGDRVSVTCKASQNVDIYVAWYQQKPGQSPKALIYSASYRFSGVPDRFTGSGSGTDFTLSISNVQSEDLAEYFCQQYNNYPYTFGGGTKLEIKR
B2 gave a Kd of 0.75 nM.

The term Kd denotes the concentration at which binding is half-saturated.
